From patent US7662919

Target: Flt1/VEGFR1 (human) (UniProt P17948)
Assay: cell-based or functional assay

UniProt P17948, sequence (P17948 27-1338): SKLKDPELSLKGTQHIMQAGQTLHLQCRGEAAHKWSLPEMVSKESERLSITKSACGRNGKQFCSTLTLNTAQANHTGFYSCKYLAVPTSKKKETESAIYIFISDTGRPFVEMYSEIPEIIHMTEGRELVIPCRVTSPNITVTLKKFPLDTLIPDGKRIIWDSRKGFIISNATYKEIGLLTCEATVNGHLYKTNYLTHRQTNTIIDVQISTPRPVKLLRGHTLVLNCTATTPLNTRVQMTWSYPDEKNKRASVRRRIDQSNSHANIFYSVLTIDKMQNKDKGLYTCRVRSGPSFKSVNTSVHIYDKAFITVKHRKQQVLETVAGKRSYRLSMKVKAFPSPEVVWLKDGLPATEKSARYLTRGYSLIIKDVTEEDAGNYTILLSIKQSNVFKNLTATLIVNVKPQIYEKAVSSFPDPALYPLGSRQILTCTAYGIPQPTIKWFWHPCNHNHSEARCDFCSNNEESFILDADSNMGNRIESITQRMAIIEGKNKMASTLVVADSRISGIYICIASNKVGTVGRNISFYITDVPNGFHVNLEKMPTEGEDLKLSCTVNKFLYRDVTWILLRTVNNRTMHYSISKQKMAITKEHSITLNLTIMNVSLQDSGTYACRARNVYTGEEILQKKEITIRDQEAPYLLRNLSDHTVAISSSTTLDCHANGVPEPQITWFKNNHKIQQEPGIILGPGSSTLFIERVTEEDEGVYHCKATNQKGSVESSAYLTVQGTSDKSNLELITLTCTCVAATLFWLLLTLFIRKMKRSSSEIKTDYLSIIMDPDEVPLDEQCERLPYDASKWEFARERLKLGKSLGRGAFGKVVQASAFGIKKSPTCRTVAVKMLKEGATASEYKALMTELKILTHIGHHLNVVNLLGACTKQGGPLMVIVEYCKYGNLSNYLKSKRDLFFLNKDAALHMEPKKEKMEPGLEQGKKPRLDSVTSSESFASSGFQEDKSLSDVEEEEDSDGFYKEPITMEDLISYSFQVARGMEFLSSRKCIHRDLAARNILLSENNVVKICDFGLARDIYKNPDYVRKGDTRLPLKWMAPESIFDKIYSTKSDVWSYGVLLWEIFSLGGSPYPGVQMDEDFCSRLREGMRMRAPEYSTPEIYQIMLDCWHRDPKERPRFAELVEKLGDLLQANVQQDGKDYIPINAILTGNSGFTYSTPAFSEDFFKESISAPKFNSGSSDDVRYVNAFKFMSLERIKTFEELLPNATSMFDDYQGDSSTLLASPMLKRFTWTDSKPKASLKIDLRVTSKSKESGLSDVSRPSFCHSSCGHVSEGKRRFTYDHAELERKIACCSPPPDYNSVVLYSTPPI

PlGF (ligand) showed an HUVEC buds containing multiple filopodia of 250%.
